According to the DeepSol protein solubility set:

Assay: soluble on expression in E. coli; label from the status in PepcDB or PDB records

| Sequence | soluble on expression in E. coli |
| --- | --- |
| SLQLHFTNDALPDNVSTDFQNLNKFSEQQFVSLTDILYQFLLEPKESERFLHQLTEFAGENGMSAGPLRALMKSILLLPHGALKRNLTAEQIKLDLLSLGLNEDKASHFSDQWRVHYPVLARLAVGQTLMVNQLVDMEWKFGVTVGTSELQKTGNIFLQLKLVIRKGNMTENVYMELTLPQFYSFLHEMERAKASMDCFS | soluble |
| SLQSIIGKHKDEGKITPEYLKKIDAYWRAANFISVGQLYLLDNPLLREPLKPEHLKRKVVGHWGTIPGQNFIYAHLNRVIKKYDLDMIYVSGPGHGGQVMVSNSYLDGTYSEVYPNVSRDLNGLKKLCKQFSFPGGISSHMAPETPGSINEGGELGYSLAHSFGAVFDNPDLITACVVGDGEAETGPLATSWQANKFLNPVTDGAVLPILHLNGYKISNPTVLSRIPKDELEKFFEGNGWKPYFVEGEDPETMHKLMAETLDIVTEEILNIQKNARENNDCSRPKWPMIVLRTPKGWTGPKFVDGVPNEGSFRAHQVPLAVDRYHTENLDQLEEWLKSYKPEELFDENYRLIPELEELTPKGNKRMAANLHANGGLLLRELRTPDFRDYAVDVPTPGSTVKQDMIELGKYVRDVVKLNEDTRNFRIFGPDETMSNRLWAVFEGTKRQWLSEIKEPNDEFLSNDGRIVDSMLSEHLCEGWLEGYLLTGRHGFFASYEAFLRIVDSMITQHGKWLKVTSQLPWRKDIASLNLIATSNVWQQDHNGYTHQDPGLLGHIVDKKPEIVRAYLPADANTLLAVFDKCLHTKHKINLLVTSKHPRQQWLTMDQAVKHVEQGISIWDWASNDKGQEPDVVIASCGDTPTLEALAAVTILHEHLPELKVRFVNVVDMMKLLPENEHPHGLSDKDYNALFTTDKPVIFAFHGFAHLINQLTYHRENRNLHVHGYMEEGTITTPFDMRVQNKLDRFNLVKDVVENLPQLGNRGAHLVQLMNDKLVEHNQYIREVGEDLPEITNWQWHV | soluble |
| SLRLKISLLSPADSFEIDLNHSYHLASAIYRAIERADPSLSIELHKPDVPKFFTFSKLFIPKRKFRIEGEKMVSDCEEAYFFFSTLRNEVAASLVEGLLSKPEIRICGVDFIVSEVSVLPEREVKGREKFVTLSPIYASTSVGENGRRRIFDLYPKDSKFYEVILQNLVKKYVLYYKSAPENLDFHMKPLNVKAKRIRLKDTFHRCVEMVFKAEGSPELLDVGYKAGFGSKNSMGFGMVKVV | soluble |
| SLSDTQEPVKLRIVHFNDVYNVFSISGGLGGGAAPFCTGLREKRGPDGLVLFSGDIFSPSPLSEASKGRQMAELLNYLDVHTSCYGNHDLDFGWEWLELLAGTTKCKWVMSNARSKIGGGVLANAQRYRIFEWGTTQRVVVGIMALIEEDWIDTLNAPDQEEIVYQDFVEAGREMVALFRRRGCDLVIALTHMRWNNDEKLAREVDGIDLILGGHDHAYVTKLVNGTAVIKSGSDFREFSAITLTPKLHLREQGTSHATGFSADHDSLAADGKNGYPVAFSGSTGGVAEVDGLCRQHGDSSHAVKRAGVCECLGRTQPVRQTKPEVVEGIHTEETQPAKLWSSGRWWLSCEKVCVSADRFEADDSVMEMLVRYQTTYGNSQGCVLGAFPVLLETRFCEVRTRECNSGNWLADLMREYYGVDVALYNSGGIRSDCVFAEGEVVTSETLHAILSGTRQLDVIAVPGNLFKSILETSVSRWPQLEGRFLQVSGLRFVFEGSARVGERVLADEIQFRNRETGDWEPLVPDRVYSVATATFLARGGDGLSVLVDCPPLDTPQRNIRDLSELARLWFCRQHRKCGFEDVEEIPPRECEWIDR | not soluble |
| SLSERVRTYWIIIELKHKAREKPYDSKSLRTALQKEITTRYQLDPKFITSILYENNVITIDLVQNSSQKTQNDVDIADVAYYFEKDVKGESLFHSKKMDLTVNGEQLDLDPGQTLIYYVDEKAPEFSEG | soluble |
| SLSGNGFDAILALSHRTSHTTYGNPFFSDVIQSISAVSEQNNFDLILQTAKTPEEELEKCAKKIQEKMIRGIIILSSTMDETLLFELDQYNIPIVVIGKVGNDYTNIYSVDTDNFQDSYDLVETLIKNGHRHIGCLHAPTEVYVSNDRLNGYRQCLFDHHLDIRNEWIIDGGFRLEDSMAAMNDLMKLRERPTAIFSTDALKSLSIYKVAEQSGKQIPDDLSIAGFSDPLLSSLFSPQLTRIDIPTNQLGIKATELLFQLIHHQYPEEKRIILSTEITLTDSI | soluble |
| SLSLRPSPRLLCTATKQKNSGQNLEEDMGQSEQKADPPATEKTLLEEKVKLEEQLKETVEKYKRALADTENLRQRSQKLVEEAKLYGIQAFCKDLLEVADVLEKATQCVPKEEIKDDNPHLKNLYEGLVMTEVQIQKVFTKHGLLKLNPVGAKFDPYEHEALFHTPVEGKEPGTVALVSKVGYKLHGRTLRPALVGVVKEA | soluble |
| SLSSLEGQENSFTINSVDMKSLPDWTVQNGKNLTLQCFADVSTTSHVKPQHQMLFYKDDVLFYNISSMKSTESYFIPEVRIYDSGTYKCTVIVNNKEKTTAEYQLLVEGVPSPRVTLDKKEAIQGGIVRVNCSVPEEKAPIHFTIEKLELNEKMVKLKREKNSRDQNFVILEFPVEEQDRVLSFRCQARIISGIHMQTSESTKSELVTVTESFSTPKFHISPTGMIMEGAQLHIKCTIQVTHLAQEFPEIIIQKDKAIVAHNRHGNKAVYSVMAMVEHSGNYTCKVESSRISKVSSIVVNITELFSKPELESSFTHLDQGERLNLSCSIPGAPPANFTIQKEDTIVSQTQDFTKIASKSDSGTYICTAGIDKVVKKSNTVQIVVCEMLS | soluble |
| SLVYDGNNKLIADLGSEKRESVSADSIPLNLVNAITSIEDKRFFKHRGVDIYRILGAAWHNLVSSNTQGGSTLDQQLIKLAYFSTNKSDQTLKRKSQEVWLALQMERKYTKEEILTFYINKVYMGNGNYGMRTTAKSYFGKDLKELSIAQLALLAGIPQAPTQYDPYKNP | not soluble |
| SLYDGDCPLCMREVNMLMERNEKHGTIKFVDISSNDYSPEDNQGLDYKTVMGQIHAIQSDGNVVKGVEAFRRLYEEVGLGWVYTITKFEPIGKLADVVYDVWAKYRLQVTGRPSIEAILEARKKDKVGNKGYRFSVVVTFAR | soluble |
| SMGAGGGGSAEQLDALVKKDKVVVFLKGTPEQPQCGFSNAVVQILRLHGVRDYAAYNVLDDPELRQGIKDYSNWPTIPQVYLNGEFVGGCDILLQMHQNGDLVEELKKLGIHSALLDE | soluble |
| SMNNKEVELYGGAITTVVPPGFIDASTLREVPDTQEVYVNSRRDEEEFEDGLATNESIIVDLLETVDKSDLKEAWQFHVEDLTELNGTTKWEALQEDTVQQGTKFTGLVMEVANKWGKPDLAQTVVIGVALIRLTQFDTDVVISINVPLTKEEASQASNKELPARCHAVYQLLQEMVRKFHVVDTSLFA | soluble |
| SMQPIVIHSSGKNYGFTIRAIRVYVGDSDIYTVHHIVWNVEEGSPACQAGLKAGDLITHINGEPVHGLVHTEVIELLLKSGNKVSITTTPFENTETSV | soluble |
| SMQQRKVLTLEKEDNQTFGFEIQTYGLHHREEQRVEMVTFVCRVHESSPAQLAGLTPGDTIASVNGLNVEGIRHREIVDIIKASGNVLRLETLYSSTL | soluble |
| SMRTAQEVETYRRSKEITVRGHNCPKPVLNFYEANFPANVMDVIARQNFTEPTAIQAQGWPVALSGLDMVGVAQTGSGKTLSYLLPAIVHINHQPFLERGDGPICLVLAPTRELAQQVQQVAAEYCRACRLKSTCIYGGAPKGPQIRDLERGVEICIATPGRLIDFLECGKTNLRRTTYLVLDEADRMLDMGFEPQIRKIVDQIRPDRQTLMWSATWPKEVRQLAEDFLKDYIHINIGALEL | soluble |
| SNAIGLIITALPEPYWIVLHDRIVNVISSSSLTSETEWVGYPFRLFDFTACHQSYSEMSCSYTLALAHAVWHHSSIGQLSLIPKFLTEALLPVVKTEFQLLYVYHLVGPFLQRFQQERTRCMIEIGVAFYDMLLNVDQCSTHLNYMDPICDFLYHMKYMFTGDSVKEQVEKIICNLKPALKLRLRFITHISKMEPAVPPQALNSGSPAPQSNQVPASLPVTQ | soluble |
| SNAKVTVGKSAPYFSLPNEKGEKLSRSAERFRNRYLLLNFWASWCDPQPEANAELKRLNKEYKKNKNFAMLGISLDIDREAWETAIKKDTLSWDQVCDFTGLSSETAKQYAILTLPTNILLSPTGKILARDIQGEALTGKLKELLKTE | soluble |
| SNALNLPYDEHADAWTQVKKALAAGKRTHKPTLLVFGANWCTDCRALDKSLRNQKNTALIAKHFEVVKIDVGNFDRNLELSQAYGDPIQDGIPAVVVVNSDGKVRYTTKGGELANARKMSDQGIYDFFAKITE | soluble |
| SNAMAAKKPLFEVIASKIKDSINRDEYKTGMLMPNETALQEIYSSSRTTIRRAVDLLVEEGLVVRKNGVGLYVQPKLTAQNILEMTGVMKNDTNENLKKDIKDFYIRKAGKFYAEIFGMKENELVYSIKFVQKSEHGATLDRLILPLGLYPDLQAKDFQIINIIELVNSGKYKLFELEQELQLILAGNEQIKNMHLNENDPVFKLSSVFYAENDMPIAIQYHYEDAESTKYVVDFN | soluble |
| SNAMDKYPFLREAGSSFKDRDVTKMSDLIATWDGQDIKGPALIGVPLSKSSISHSGASFAPGTIRQALKHSSAYSAELGEHVVSELLYDLGDIDIHVTDIVKSHHHIFQTMHALLSDHPDWVPLILGGDNSISYSTIKAIAQTKGTTAVIQFDAHHDVRNTEDGGPTNGTPFRRLLDEEIIEGQHLIQLGIREFSNSQAYEAYAKKHNVNIHTMDMIREKGLIPTIKEILPVVQDKTDFIFISVDMDVLDQSHAPGCPAIGPGGLYTDELLEAVKYIAQQPNVAGIEIVEVDPTLDFRDMTSRAAAHVLLHALKGMKLSPFK | soluble |
| SNAMEKYILSIDQGTTSSRAILFNQKGEIAGVAQREFKQYFPQSGWVEHDANEIWTSVLAVMTEVINENDVRADQIAGIGITNQRETTVVWDKHTGRPIYHAIVWQSRQTQSICSELKQQGYEQTFRDKTGLLLDPYFAGTKVKWILDNVEGAREKAENGDLLFGTIDTWLVWKLSGKAAHITDYSNASRTLMFNIHDLEWDDELLELLTVPKNMLPEVKASSEVYGKTIDYHFYGQEVPIAGVAGDQQAALFGQACFERGDVKNTYGTGGFMLMNTGDKAVKSESGLLTTIAYGIDGKVNYALEGSIFVSGSAIQWLRDGLRMINSAPQSESYATRVDSTEGVYVVPAFVGLGTPYWDSEARGAIFGLTRGTEKEHFIRATLESLCYQTRDVMEAMSKDSGIDVQSLRVDGGAVKNNFIMQFQADIVNTSVERPEIQETTALGAAFLAGLAVGFWESKDDIAKNWKLEEKFDPKMDEGEREKLYRGWKKAVEATQVFKTE | soluble |
| SNAMHNHNNRLVITPGEPAGVGPDLAITLAQQDWPVELVVCADPALLLARASQLNLPLQLREYQADQPAIAQQAGSLTILPVKTAVNVVPGKLDVGNSHYVVETLAKACDGAISGEFAALVTGPVQKSIINDAGIPFIGHTEFFADRSHCQRVVMMLATEELRVALATTHLPLLAVPGAITQASLHEVITILDNDLKTKFGITQPQIYVCGLNPHAGEGGHMGHEEIDTIIPALNTLRQQGINLIGPLPADTLFQPKYLQHADAVLAMYHDQGLPVLKYQGFGRAVNITLGLPFIRTSVDHGTALELAATGTADVGSFITALNLAIKMINNSNE | soluble |
| SNAMLFDEKEILAITRWAKLYANQSPDRILLGSNDIPPEYRAAVATQIELWPRLRNKLPQWAGISSLYIPSRLSLEQSSGAVTSSYKSRFIREGTKVVDLTGGLGIDFIALMSKASQGIYIERNDETAVAARHNIPLLLNEGKDVNILTGDFKEYLPLIKTFHPDYIYVDPARRSGADKRVYAIADCEPDLIPLATELLPFCSSILAKLSPMIDLWDTLQSLLHVQELHVVAAHGEVKELLVRMSLNEATIPPEKVPIHAINLLLEDTVIPFIFTMEEERSISIPYTDSIDKYVYEPHTALLKAGAFKTVAYRLGLRKLHPNSHLYTSEAYESAFPGRTFVLEEIIPFSTSVLKQLRKVVPQASISCRNFPLSPIELRQRSKMADGGEKTLMGTTMADGKKVLLLLRKAE | soluble |
